Laboratory results from the supplement of paper PMC9112550, “Optimization of the antimicrobial peptide Bac7 by deep mutational scanning” (BMC Biology, 2022).

Tested on: Escherichia coli TOP10
Assay: shrunken log2 fold change of peptide-encoding DNA abundance (4.5 h post-induction vs induction); higher = less antimicrobial activity (less host growth inhibition)
Conditions: time post-induction: 4.5 h; library: site-saturation at positions 5, 18, 19, 20
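Note: peptides expressed intracellularly from a pBAD plasmid library in pooled LB shake-flask culture, induced with 0.3% L-arabinose, DNA abundance read by NGS, three biological replicates, DESeq2 with apeglm shrinkage.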

RRIRIRPPRLPRPRPRPIDLPRP
shrunken log2 fold change: -0.179

RRIRIRPPRLPRPRPRPIEIPRP
shrunken log2 fold change: -0.437

RRIRIRPPRLPRPRPRPIEYPRP
shrunken log2 fold change: -0.0602

RRIRIRPPRLPRPRPRPIFCPRP
shrunken log2 fold change: -0.0695

RRIRIRPPRLPRPRPRPIGIPRP
shrunken log2 fold change: -0.0608

RRIRIRPPRLPRPRPRPIHMPRP
shrunken log2 fold change: -0.379

RRIRIRPPRLPRPRPRPIIPPRP
shrunken log2 fold change: -0.072

RRIRIRPPRLPRPRPRPILPPRP
shrunken log2 fold change: 0.0798

RRIRIRPPRLPRPRPRPILVPRP
shrunken log2 fold change: 0.0273

RRIRIRPPRLPRPRPRPIMGPRP
shrunken log2 fold change: -0.08

RRIRIRPPRLPRPRPRPINGPRP
shrunken log2 fold change: -0.383

RRIRIRPPRLPRPRPRPIPAPRP
shrunken log2 fold change: -0.0353

RRIRIRPPRLPRPRPRPIPDPRP
shrunken log2 fold change: -1.08

RRIRIRPPRLPRPRPRPIRIPRP
shrunken log2 fold change: 0.0736

RRIRIRPPRLPRPRPRPIRKPRP
shrunken log2 fold change: -0.0303

RRIRIRPPRLPRPRPRPIRLPRP
shrunken log2 fold change: -0.41

RRIRIRPPRLPRPRPRPISQPRP
shrunken log2 fold change: -0.961

RRIRIRPPRLPRPRPRPITAPRP
shrunken log2 fold change: -0.592

RRIRIRPPRLPRPRPRPITFPRP
shrunken log2 fold change: -1.1

RRIRIRPPRLPRPRPRPITPPRP
shrunken log2 fold change: -0.421

RRIRIRPPRLPRPRPRPIVDPRP
shrunken log2 fold change: -0.0819

RRIRIRPPRLPRPRPRPIVFPRP
shrunken log2 fold change: -0.144

RRIRIRPPRLPRPRPRPIVYPRP
shrunken log2 fold change: -0.383

RRIRIRPPRLPRPRPRPIWRPRP
shrunken log2 fold change: 0.529

RRIRIRPPRLPRPRPRPKAAPRP
shrunken log2 fold change: 0.147

RRIRIRPPRLPRPRPRPKAMPRP
shrunken log2 fold change: -0.161

RRIRIRPPRLPRPRPRPKASPRP
shrunken log2 fold change: -0.0616

RRIRIRPPRLPRPRPRPKDIPRP
shrunken log2 fold change: -1.25

RRIRIRPPRLPRPRPRPKDRPRP
shrunken log2 fold change: -0.409

RRIRIRPPRLPRPRPRPKFGPRP
shrunken log2 fold change: 0.0227

RRIRIRPPRLPRPRPRPKFRPRP
shrunken log2 fold change: -0.0682

RRIRIRPPRLPRPRPRPKGEPRP
shrunken log2 fold change: 0.00835

RRIRIRPPRLPRPRPRPKGYPRP
shrunken log2 fold change: -0.0143

RRIRIRPPRLPRPRPRPKHLPRP
shrunken log2 fold change: -0.137

RRIRIRPPRLPRPRPRPKHMPRP
shrunken log2 fold change: -0.451

RRIRIRPPRLPRPRPRPKHTPRP
shrunken log2 fold change: -0.329

RRIRIRPPRLPRPRPRPKIIPRP
shrunken log2 fold change: -0.468

RRIRIRPPRLPRPRPRPKKDPRP
shrunken log2 fold change: -0.602

RRIRIRPPRLPRPRPRPKKHPRP
shrunken log2 fold change: -0.21

RRIRIRPPRLPRPRPRPKLHPRP
shrunken log2 fold change: -0.0109

RRIRIRPPRLPRPRPRPKLTPRP
shrunken log2 fold change: 0.0656

RRIRIRPPRLPRPRPRPKMTPRP
shrunken log2 fold change: 0.123

RRIRIRPPRLPRPRPRPKNCPRP
shrunken log2 fold change: -0.164

RRIRIRPPRLPRPRPRPKNQPRP
shrunken log2 fold change: -0.359

RRIRIRPPRLPRPRPRPKPKPRP
shrunken log2 fold change: 0.161

RRIRIRPPRLPRPRPRPKQAPRP
shrunken log2 fold change: 0.0872

RRIRIRPPRLPRPRPRPKQDPRP
shrunken log2 fold change: -0.354

RRIRIRPPRLPRPRPRPKQHPRP
shrunken log2 fold change: -0.307

RRIRIRPPRLPRPRPRPKQIPRP
shrunken log2 fold change: -0.205

RRIRIRPPRLPRPRPRPKQRPRP
shrunken log2 fold change: 0.0202

RRIRIRPPRLPRPRPRPKRTPRP
shrunken log2 fold change: -0.198

RRIRIRPPRLPRPRPRPKRYPRP
shrunken log2 fold change: -0.118

RRIRIRPPRLPRPRPRPKTCPRP
shrunken log2 fold change: 0.179

RRIRIRPPRLPRPRPRPKTYPRP
shrunken log2 fold change: -0.879

RRIRIRPPRLPRPRPRPKWTPRP
shrunken log2 fold change: -0.116

RRIRIRPPRLPRPRPRPKYIPRP
shrunken log2 fold change: -0.992

RRIRIRPPRLPRPRPRPKYPPRP
shrunken log2 fold change: -0.121

RRIRIRPPRLPRPRPRPLAAPRP
shrunken log2 fold change: 0.255

RRIRIRPPRLPRPRPRPLARPRP
shrunken log2 fold change: 0.346

RRIRIRPPRLPRPRPRPLAVPRP
shrunken log2 fold change: 0.097

RRIRIRPPRLPRPRPRPLCLPRP
shrunken log2 fold change: -0.736

RRIRIRPPRLPRPRPRPLCVPRP
shrunken log2 fold change: -0.551

RRIRIRPPRLPRPRPRPLDMPRP
shrunken log2 fold change: -0.285

RRIRIRPPRLPRPRPRPLDQPRP
shrunken log2 fold change: -0.127

RRIRIRPPRLPRPRPRPLEAPRP
shrunken log2 fold change: -0.118

RRIRIRPPRLPRPRPRPLETPRP
shrunken log2 fold change: -0.0471

RRIRIRPPRLPRPRPRPLFTPRP
shrunken log2 fold change: -0.374

RRIRIRPPRLPRPRPRPLFWPRP
shrunken log2 fold change: -0.145

RRIRIRPPRLPRPRPRPLGNPRP
shrunken log2 fold change: -0.19

RRIRIRPPRLPRPRPRPLHSPRP
shrunken log2 fold change: -0.402

RRIRIRPPRLPRPRPRPLIMPRP
shrunken log2 fold change: -0.853

RRIRIRPPRLPRPRPRPLKRPRP
shrunken log2 fold change: -0.0843

RRIRIRPPRLPRPRPRPLKYPRP
shrunken log2 fold change: -0.0551

RRIRIRPPRLPRPRPRPLLVPRP
shrunken log2 fold change: -0.565

RRIRIRPPRLPRPRPRPLMDPRP
shrunken log2 fold change: -0.396
